Data published in patent publication US20240398963A1 (priority 2021, published 2024).

Assay type: physicochemical
Conditions: 10 mM PBS buffer (pH=7.4), 37° C., 100 rpm shaker; free drug by HPLC, average release per day
Protocol: The drug release and stability experiments were run using the test compounds. About 2.5±1.0 mg/mL (with regard to conjugate) solution of each test compound was prepared with 10 mM PBS buffer (pH=7.4) in Millipore Amicon® Ultra-0.5 ml 30 k Ultrafiltration centrifuge tube. The solution was kept swelling for 1 h at room temperature and then placed in a shaker at 100 rpm, 37° C. for continuous experiment. At the same time point of each day, samples were centrifuged at 10000 rpm for 1 h. The aliquot was transferred to HPLC vial for analysis. An 0.4 mL of 10 mM PBS buffer was added into the centrifuge tube and continue the experiment.
For the HPLC analysis at each time point, the peak areas of all relevant peaks from the chromatograms were retrieved and the concentration of free drug was calculated. Average release of free drug was calculated based on the sum of free drug and numbers of experiment days. The computing equation is as below.
The sample degradation rate was calculated based on the concentration and degree of substitution (NMR) for conjugated drug with regard to the initial starting point of the experiment (at t=0). The computing equation is as below.

With “Conjugate of CS (Chondroitin sulfate) and 2-aminopropyl (2-((6αS,6βR,7S,8αS,8βS,11αR,12αS,12βS)-6β-fluoro-7-hydroxy-6α,8α,10,10-tetramethyl-4-oxo-1,2,4,6α,6β,7,8,8α,11α,12,12α,12β-dodecahydro-8βH-naphtho[2′,1′:4,5]indeno[1,2-d][1,3]dioxol-8β-yl)-2-oxoethyl) carbonate [Example 53]” as the substance, how does the Release rate read?
Its Release rate is 1.49 %/day.

With “Conjugate of CS and 2-(2-(2-(2-aminoethoxy)ethoxy)ethoxy)ethyl (2-((6αS,6βR,7S,8αS,8βS,11αR,12αS,12βS)-6β-fluoro-7-hydroxy-6α,8α,10,10-tetramethyl-4-oxo-1,2,4,6α,6β,7,8,8α,11α,12,12α,12β-dodecahydro-8βH-naphtho[2′,1′:4,5]indeno[1,2-d][1,3]dioxol-8β-yl)-2-oxoethyl) carbonate [Example 55]” as the substance, how does the Release rate read?
Its Release rate is 1.20 %/day.

For “Conjugate of CS and 2-((6S,8S,9S,10R,11S,13S,14S,17R)-11,17-dihydroxy-6,10,13-trimethyl-3-oxo-6,7,8,9,10,11,12,13,14,15,16,17-dodecahydro-3H-cyclopenta[a]phenanthren-17-yl)-2-oxoethyl 4-aminobutanoate [Example 43]”, which Release rate is on record?
Its Release rate is 1.07 %/day.

Which Release rate does the source give for “Conjugate of CS and 2-((6αS,6βR,7S,8αS,8βS,11αR,12αS,12βS)-6β-fluoro-7-hydroxy-6α,8α,10,10-tetramethyl-4-oxo-1,2,4,6α,6β,7,8,8α,11α,12,12α,12β-dodecahydro-8βH-naphtho[2′,1′:4,5]indeno[1,2-d][1,3]dioxol-8β-yl)-2-oxoethyl 2,5-diazabicyclo[2.2.1]heptane-2-carboxylate [Example 59]” here?
Its Release rate is 0.02 %/day.

With “Conjugate of CS and 2-((6αS,6βR,7S,8αS,8βS,11αR,12αS,12βS)-6β-fluoro-7-hydroxy-6α,8α,10,10-tetramethyl-4-oxo-1,2,4,6α,6β,7,8,8α,11α,12,12α,12β-dodecahydro-8βH-naphtho[2′,1′:4,5]indeno[1,2-d][1,3]dioxol-8β-yl)-2-oxoethyl 7-azaspiro[3.5]nonane-2-carboxylate [Example 49]” as the substance, how does the Release rate read?
The Release rate was 0.42 %/day.

With “Conjugate of CS and 2-((6αS,6βR,7S,8αS,8βS,11αR,12αS,12βS)-6β-fluoro-7-hydroxy-6α,8α,10,10-tetramethyl-4-oxo-1,2,4,6α,6β,7,8,8α,11α,12,12α,12β-dodecahydro-8βH-naphtho[2′,1′:4,5]indeno[1,2-d][1,3]dioxol-8β-yl)-2-oxoethyl 14-amino-3,6,9,12-tetraoxatetradecanoate [Example 51]” as the substance, how does the Release rate read?
The Release rate was 7.21 %/day.

Which Release rate does the source give for “Conjugate of CS and 2-((6αS,6βR,7S,8αS,8βS,11αR,12αS,12βS)-6β-fluoro-7-hydroxy-6α,8α,10,10-tetramethyl-4-oxo-1,2,4,6α,6β,7,8,8α,11α,12,12α,12β-dodecahydro-8βH-naphtho[2′,1′:4,5]indeno[1,2-d][1,3]dioxol-8β-yl)-2-oxoethyl piperazine-1-carboxylate [Example 57]” here?
The Release rate was 0.23 %/day.

With “Conjugate of CS and 2-((8S,9R,10S,11S,13S,14S,16R,17R)-9-fluoro-11,17-dihydroxy-10,13,16-trimethyl-3-oxo-6,7,8,9,10,11,12,13,14,15,16,17-dodecahydro-3H-cyclopenta[a]phenanthren-17-yl)-2-oxoethyl 4-aminobutanoate [Example 45]” as the substance, how does the Release rate read?
The Release rate was 0.40 %/day.

Which Release rate does the source give for “Conjugate of CS and 2-((8S,9R,10S,11S,13S,14S,16S,17R)-9-fluoro-11,17-dihydroxy-10,13,16-trimethyl-3-oxo-6,7,8,9,10,11,12,13,14,15,16,17-dodecahydro-3H-cyclopenta[a]phenanthren-17-yl)-2-oxoethyl 4-aminobutanoate [Example 47]” here?
The Release rate was 1.24 %/day.

With “Conjugate of CS and 2-((8S,9S,10R,11S,13S,14S,17R)-11,17-dihydroxy-10,13-dimethyl-3-oxo-2,3,6,7,8,9,10,11,12,13,14,15,16,17-tetradecahydro-1H-cyclopenta[a]phenanthren-17-yl)-2-oxoethyl 4-aminobutanoate [Example 39]” as the substance, how does the Release rate read?
Its Release rate is 0.71 %/day.

For “Conjugate of CS and 2-((8S,9S,10R,13S,14S,17R)-17-hydroxy-10,13-dimethyl-3,11-dioxo-2,3,6,7,8,9,10,11,12,13,14,15,16,17-tetradecahydro-1H-cyclopenta[a]phenanthren-17-yl)-2-oxoethyl 4-aminobutanoate [Example 41]”, which Release rate is on record?
The Release rate was 1.79 %/day.

With “Conjugate of CS and 2-((8S,9S,10R,13S,14S,17R)-17-hydroxy-10,13-dimethyl-3,11-dioxo-6,7,8,9,10,11,12,13,14,15,16,17-dodecahydro-3H-cyclopenta[a]phenanthren-17-yl)-2-oxoethyl 4-aminobutanoate [Example 35]” as the substance, how does the Release rate read?
The Release rate was 1.44 %/day.

Which Release rate does the source give for “Conjugate of CS and 4-aminobutyl (2-((6S,8S,9S,10R,11S,13S,14S,17R)-11,17-dihydroxy-6,10,13-trimethyl-3-oxo-6,7,8,9,10,11,12,13,14,15,16,17-dodecahydro-3H-cyclopenta[a]phenanthren-17-yl)-2-oxoethyl) carbonate [Example 69]” here?
The Release rate was 4.62 %/day.

Which Release rate does the source give for “Conjugate of CS and 4-aminobutyl (2-((8S,9R,10S,11S,13S,14S,16R,17R)-9-fluoro-11,17-dihydroxy-10,13,16-trimethyl-3-oxo-6,7,8,9,10,11,12,13,14,15,16,17-dodecahydro-3H-cyclopenta[a]phenanthren-17-yl)-2-oxoethyl) carbonate [Example 71]” here?
Its Release rate is 1.55 %/day.

With “Conjugate of CS and 4-aminobutyl (2-((8S,9R,10S,11S,13S,14S,16S,17R)-9-fluoro-11,17-dihydroxy-10,13,16-trimethyl-3-oxo-6,7,8,9,10,11,12,13,14,15,16,17-dodecahydro-3H-cyclopenta[a]phenanthren-17-yl)-2-oxoethyl) carbonate [Example 73]” as the substance, how does the Release rate read?
The Release rate was 13.44 %/day.

Which Release rate does the source give for “Conjugate of CS and 4-aminobutyl (2-((8S,9S,10R,11S,13S,14S,17R)-11,17-dihydroxy-10,13-dimethyl-3-oxo-2,3,6,7,8,9,10,11,12,13,14,15,16,17-tetradecahydro-1H-cyclopenta[a]phenanthren-17-yl)-2-oxoethyl) carbonate [Example 65]” here?
Its Release rate is 7.52 %/day.

For “Conjugate of CS and 4-aminobutyl (2-((8S,9S,10R,11S,13S,14S,17R)-11,17-dihydroxy-10,13-dimethyl-3-oxo-6,7,8,9,10,11,12,13,14,15,16,17-dodecahydro-3H-cyclopenta[a]phenanthren-17-yl)-2-oxoethyl) carbonate [Example 63]”, which Release rate is on record?
The Release rate was 0.05 %/day.

Which Release rate does the source give for “Conjugate of CS and 4-aminobutyl (2-((8S,9S,10R,13S,14S,17R)-17-hydroxy-10,13-dimethyl-3,11-dioxo-2,3,6,7,8,9,10,11,12,13,14,15,16,17-tetradecahydro-1H-cyclopenta[a]phenanthren-17-yl)-2-oxoethyl) carbonate [Example 67]” here?
The Release rate was 5.91 %/day.

With “Conjugate of CS and 4-aminobutyl (2-((8S,9S,10R,13S,14S,17R)-17-hydroxy-10,13-dimethyl-3,11-dioxo-6,7,8,9,10,11,12,13,14,15,16,17-dodecahydro-3H-cyclopenta[a]phenanthren-17-yl)-2-oxoethyl) carbonate [Example 61]” as the substance, how does the Release rate read?
Its Release rate is 7.26 %/day.

With “Conjugate of HA and 2-((2S,6αS,6βR,7S,8αS,8βS,11αR,12αS,12βS)-2,6β-difluoro-7-hydroxy-6α,8α,10,10-tetramethyl-4-oxo-1,2,4,6α,6β,7,8,8α,11α,12,12α,12β-dodecahydro-8βH-naphtho[2′,1′:4,5]indeno[1,2-d][1,3]dioxol-8β-yl)-2-oxoethyl 6-aminohexanoate [Example 23]” as the substance, how does the Release rate read?
The Release rate was 1.01 %/day.

For “Conjugate of HA and 2-((6S,8S,9S,10R,11S,13S,14S,17R)-11,17-dihydroxy-6,10,13-trimethyl-3-oxo-6,7,8,9,10,11,12,13,14,15,16,17-dodecahydro-3H-cyclopenta[a]phenanthren-17-yl)-2-oxoethyl 4-aminobutanoate [Example 42]”, which Release rate is on record?
The Release rate was 2.88 %/day.

Which Release rate does the source give for “Conjugate of HA and 2-((6S,8S,9S,10R,11S,13S,14S,17R)-11,17-dihydroxy-6,10,13-trimethyl-3-oxo-6,7,8,9,10,11,12,13,14,15,16,17-dodecahydro-3H-cyclopenta[a]phenanthren-17-yl)-2-oxoethyl 5-aminopentanoate [Example 78]” here?
The Release rate was 8.92 %/day.

With “Conjugate of HA and 2-((6S,8S,9S,10R,11S,13S,14S,17R)-11,17-dihydroxy-6,10,13-trimethyl-3-oxo-6,7,8,9,10,11,12,13,14,15,16,17-dodecahydro-3H-cyclopenta[a]phenanthren-17-yl)-2-oxoethyl 6-aminohexanoate [Example 82]” as the substance, how does the Release rate read?
The Release rate was 2.30 %/day.

With “Conjugate of HA and 2-((6αS,6βR,7S,8αS,8βS,11αR,12αS,12βS)-6β-fluoro-7-hydroxy-6α,8α,10,10-tetramethyl-4-oxo-1,2,4,6α,6β,7,8,8α,11α,12,12α,12β-dodecahydro-8βH-naphtho[2′,1′:4,5]indeno[1,2-d][1,3]dioxol-8β-yl)-2-oxoethyl 2,5-diazabicyclo[2.2.1]heptane-2-carboxylate [Example 58]” as the substance, how does the Release rate read?
Its Release rate is 0.25 %/day.
